For this assay, the target named is mouse LSR (mouse) (UniProt Q99KG5). Description: cell-based or functional assay.
Chain of UniProt Q99KG5 (Q99KG5 36-594): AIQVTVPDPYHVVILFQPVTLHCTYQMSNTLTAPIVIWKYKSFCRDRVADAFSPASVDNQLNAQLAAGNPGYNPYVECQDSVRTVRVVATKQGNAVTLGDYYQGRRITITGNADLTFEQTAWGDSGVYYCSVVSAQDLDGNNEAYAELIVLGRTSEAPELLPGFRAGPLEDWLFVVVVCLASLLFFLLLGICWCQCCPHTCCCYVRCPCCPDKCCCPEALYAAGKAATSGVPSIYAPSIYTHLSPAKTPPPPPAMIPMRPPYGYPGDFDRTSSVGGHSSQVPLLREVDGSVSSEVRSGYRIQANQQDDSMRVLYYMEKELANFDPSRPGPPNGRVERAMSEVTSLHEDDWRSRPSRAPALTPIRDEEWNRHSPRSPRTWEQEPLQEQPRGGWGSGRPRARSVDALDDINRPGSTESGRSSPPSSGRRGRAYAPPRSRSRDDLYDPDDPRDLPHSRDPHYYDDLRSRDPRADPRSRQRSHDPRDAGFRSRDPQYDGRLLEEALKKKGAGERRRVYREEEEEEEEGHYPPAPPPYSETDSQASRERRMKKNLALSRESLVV

Substance “125I-mouse leptin (from UniProt P41160 22-167) (ligand)” gave a leptin uptake in a liver cell line (BPRCL), gOBG3 against OBG3 above 30%.

Source of the values: EP1248849B1.
